B1: Cdc42 (1–179) (domain or fragment)
chain: not shown
notes: Loaded with the non-hydrolysable GTP analogue GppNHp and Mg2+ in all rows written here; also called Cdc42·GppNHp; active Cdc42; source: E. coli, GST fusion, purified; nucleotide exchanged for GppNHp
B2: Full-length, recombinant FMNL1 protein (natural protein, human, UniProt O95466 1-1100, looked up)
chain: MGNAAGSAEQPAGPAAPPPKQPAPPKQPMPAAGELEERFNRALNCMNLPPDKVQLLSQYDNEKKWELICDQERFQVKNPPAAYIQKLKSYVDTGGVSRKVAADWMSNLGFKRRVQESTQVLRELETSLRTNHIGWVQEFLNEENRGLDVLLEYLAFAQCSVTYDMESTDNGASNSEKNKPLEQSVEDLSKGPPSSVPKSRHLTIKLTPAHSRKALRNSRIVSQKDDVHVCIMCLRAIMNYQSGFSLVMNHPACVNEIALSLNNKNPRTKALVLELLAAVCLVRGGHDIILAAFDNFKEVCGEQHRFEKLMEYFRNEDSNIDFMVACMQFINIVVHSVENMNFRVFLQYEFTHLGLDLYLERLRLTESDKLQVQIQAYLDNIFDVGALLEDTETKNAVLEHMEELQEQVALLTERLRDAENESMAKIAELEKQLSQARKELETLRERFSESTAMGPSRRPPEPEKAPPAAPTRPSALELKVEELEEKGLIRILRGPGDAVSIEILPVAVATPSGGDAPTPGVPTGSPSPDLAPAAEPAPGAAPPPPPPLPGLPSPQEAPPSAPPQAPPLPGSPEPPPAPPLPGDLPPPPPPPPPPPGTDGPVPPPPPPPPPPPGGPPDALGRRDSELGPGVKAKKPIQTKFRMPLLNWVALKPSQITGTVFTELNDEKVLQELDMSDFEEQFKTKSQGPSLDLSALKSKAAQKAPSKATLIEANRAKNLAITLRKGNLGAERICQAIEAYDLQALGLDFLELLMRFLPTEYERSLITRFEREQRPMEELSEEDRFMLCFSRIPRLPERMTTLTFLGNFPDTAQLLMPQLNAIIAASMSIKSSDKLRQILEIVLAFGNYMNSSKRGAAYGFRLQSLDALLEMKSTDRKQTLLHYLVKVIAEKYPQLTGFHSDLHFLDKAGSVSLDSVLADVRSLQRGLELTQREFVRQDDCMVLKEFLRANSPTMDKLLADSKTAQEAFESVVEYFGENPKTTSPGLFFSLFSRFIKAYKKAEQEVEQWKKEAAAQEAGADTPGKGEPPAPKSPPKARRPQMDLISELKRRQQKEPLIYESDRDGAIEDIITVIKTVPFTARTGKRTSRLLCEASLGEEMPL
notes: also called full-length FMNL1; source: expressed from insect cells
B3: FMNL1NCC (1–458, Δ172–198) (domain or fragment, human, UniProt O95466 1-458, looked up)
chain: MGNAAGSAEQPAGPAAPPPKQPAPPKQPMPAAGELEERFNRALNCMNLPPDKVQLLSQYDNEKKWELICDQERFQVKNPPAAYIQKLKSYVDTGGVSRKVAADWMSNLGFKRRVQESTQVLRELETSLRTNHIGWVQEFLNEENRGLDVLLEYLAFAQCSVTYDMESTDNGSRHLTIKLTPAHSRKALRNSRIVSQKDDVHVCIMCLRAIMNYQSGFSLVMNHPACVNEIALSLNNKNPRTKALVLELLAAVCLVRGGHDIILAAFDNFKEVCGEQHRFEKLMEYFRNEDSNIDFMVACMQFINIVVHSVENMNFRVFLQYEFTHLGLDLYLERLRLTESDKLQVQIQAYLDNIFDVGALLEDTETKNAVLEHMEELQEQVALLTERLRDAENESMAKIAELEKQLSQARKELETLRERFSESTAMGPSRR
notes: also called FMNL1NCC(Δ172–198); FMNL1 (1–458, Δ172–198); source: E. coli, purified (GSH Sepharose, TEV cleavage, gel filtration); not shown: GST, N-terminal, cleaved

In series [1] the target is B3. In words: crystal structure; complexes formed by equimolar mixing of the FMNL fragment with GppNHp-loaded Cdc42 (1–179) in high salt buffer and overnight dialysis at 277 K into 20 mM Tris/HCl pH 8.0, 150 mM NaCl, 5 mM MgCl2, 1 mM DTE; hanging drop vapour diffusion at 293 K. The following applies: both partners purified.
The target in series [2] is myrFMNL2N (myristoylated FMNL2N, residues 2–379) (human, UniProt Q96PY5 2-379, N-terminal myristoylation (myrFMNL2N)). Description: ITC; Cdc42·GppNHp titrated to myrFMNL2N at liposomes; 25 °C. As to conditions: both partners purified.
Sequence of myrFMNL2N (myristoylated FMNL2N, residues 2–379) (Q96PY5 2-379): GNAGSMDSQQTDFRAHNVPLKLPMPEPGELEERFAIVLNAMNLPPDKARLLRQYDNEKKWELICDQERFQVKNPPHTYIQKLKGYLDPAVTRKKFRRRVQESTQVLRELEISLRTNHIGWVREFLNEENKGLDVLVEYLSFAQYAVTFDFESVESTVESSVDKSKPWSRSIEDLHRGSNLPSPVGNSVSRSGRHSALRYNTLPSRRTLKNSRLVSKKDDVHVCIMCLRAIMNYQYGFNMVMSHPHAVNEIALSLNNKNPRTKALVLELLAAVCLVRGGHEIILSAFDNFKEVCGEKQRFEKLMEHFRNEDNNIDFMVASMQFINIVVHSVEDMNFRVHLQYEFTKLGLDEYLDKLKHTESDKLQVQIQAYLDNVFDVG
The target in series [3] is T1, FMNL2N(Δloop) (residues 1–379, Δaa 144–218) (human, UniProt Q96PY5 1-379, Δaa 144–218).
T1 construct: source: E. coli, purified (GSH Sepharose, TEV cleavage, gel filtration); not shown: GST, N-terminal, cleaved
T1 sequence (Q96PY5 other isoform, or with tags, fused parts or gaps Δaa 144–218 | Δaa 144–218 | mutant): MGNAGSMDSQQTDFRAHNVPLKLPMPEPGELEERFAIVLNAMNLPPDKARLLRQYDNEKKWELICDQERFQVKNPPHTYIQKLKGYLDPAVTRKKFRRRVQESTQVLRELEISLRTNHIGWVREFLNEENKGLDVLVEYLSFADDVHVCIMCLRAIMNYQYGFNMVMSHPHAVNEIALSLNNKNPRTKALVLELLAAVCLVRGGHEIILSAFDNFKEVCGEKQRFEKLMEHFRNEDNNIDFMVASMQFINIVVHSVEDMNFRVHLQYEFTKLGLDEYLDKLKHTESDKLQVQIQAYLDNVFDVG
Description: ITC; GppNHp-loaded GTPase at 500 μM injected from the syringe into 50 μM FMNL in the cell; 20 mM Tris/HCl pH 8, 150 mM NaCl, 5 mM MgCl2, 1 mM DTE, 298 K; MicroCal iTC200. The following applies: both partners purified. (ITC needs no label: the signal is the heat of the interaction.)

Series [4] deals with the molecule itself. Description: SEC; size exclusion chromatography of full-length recombinant FMNL1 from insect cells; data not shown. (In general: SEC sorts molecules by how far they enter the pores of the column.)
Series [5] concerns the molecule itself. Description: crystal structure; complexes formed by equimolar mixing of the FMNL fragment with GppNHp-loaded Cdc42 (1–179) in high salt buffer and overnight dialysis at 277 K into 20 mM Tris/HCl pH 8.0, 150 mM NaCl, 5 mM MgCl2, 1 mM DTE; hanging drop vapour diffusion at 293 K.

Data on 3 molecules can be found in publication PMC4432619, “The structure of FMNL2–Cdc42 yields insights into the mechanism of lamellipodia and filopodia formation” (Nature Communications, 2015).

By Kd is commonly meant the concentration at which binding is half-saturated. Low readings indicate tighter binding, high ones weaker binding. Usually stoichiometry N stands for the number of molecules, sites or subunits per partner or assembly.

As for B1, the binding result in series [1] is “binds”. For the same molecule, in series [2], the Kd worked out at 1790 ± 760 nM, the dH was -2.77 ± 0.29 kcal/mol and the “stoichiometry N” value is 0.93. In series [3], binding was characterised by a dissociation constant (Kd) of 1340 ± 170 nM, the dH is -2.39 ± 0.04 kcal/mol and the “stoichiometry N” value was 1.

In the case of B2, the “stoichiometry N” value in series [4] stood at 2.

As for B3, the binding result in series [5] is recorded as “binds”.
